Test results: the supplement of paper PMC9170038

Columns and labels:
[1] = system: MS2 coat protein; assay: apparent KD of MS2 coat protein, switch ON state; designed switch direction (-1 OFF switch, 1 ON switch): 1; higher = weaker reporter binding; conditions: FMN input: 0 or 200 uM; Eterna round: R93 (includes R88 designs)
How it was run: (§1)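 Illumina sequencing clusters were used for on-chip transcription of designed RNA switches. Titration with SNAP-549-labelled MS2 coat protein followed, in twofold steps from 0.7 or 1.5 nM to 3 µM in 100 mM Tris-HCl pH 7.5, 80 mM KCl, 4 mM MgCl2, without or with constant ligand. Apparent KD is each design's median of fits to normalised cluster binding curves.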

[2] = system: MS2 coat protein; assay: apparent KD of MS2 coat protein, switch OFF state (with FMN for OFF switches, without FMN for ON switches); designed switch direction (-1 OFF switch, 1 ON switch): 1; higher = weaker reporter binding; conditions: FMN input: 0 or 200 uM; Eterna round: R93 (includes R88 designs)
How it was run: as §1

AGGAGACAUGAGGAUCACCCAUGUGCACGUGGAGGAGGAUAUGCUAGUAGAAGAUAGAAUGCAGAAGGCCUAAGAA [JR_SameState1_Sub3]
apparent KD of MS2 coat protein [1]: 42.8 nM | apparent KD of MS2 coat protein [2]: 35.3 nM

AAAAGACAUGAGGAUCACCCAUGUCCUCGGACAUGAGGAUAUGUACAGACUUCGGUCUGUACAGAAGGCAUGAAAA [SS1 - 1064]
apparent KD of MS2 coat protein [1]: 52 nM | apparent KD of MS2 coat protein [2]: 233 nM

AGGAGACAUGAGGAUCACCCAUGUGCACGUGGAGGAGGAUAUGCUAGUAGAAGAUAGAAAGCAGAAGGCCUAAGAA [mod of top voted: #2]
apparent KD of MS2 coat protein [1]: 44.3 nM | apparent KD of MS2 coat protein [2]: 37.2 nM

AGGAAACAUGAGGAUCACCCAUGUAUAAAAAAUACAGGAUAUGGAAACACGAAAGUGAAACCAGAAGGGUAAAAAA [77%, Mat - Mod of Eli, 32]
apparent KD of MS2 coat protein [1]: 15.9 nM | apparent KD of MS2 coat protein [2]: 39.9 nM

AUACUACAUGAGGAUCACCCAUGUUGAAAUAUGGAAGGAUAUACGUAGUAAAAUAACUACGUAGAAGGUCCAGAAA [SS1 MT 22]
apparent KD of MS2 coat protein [1]: 18.7 nM | apparent KD of MS2 coat protein [2]: 19.6 nM

GGGCAAGAGAGAGAGGAUAUCCAAAGGAAAACAUGAGGAUCACCCAUGUAGAAGGUAGGAAAUUGGGAGAAGGCUCAAGAGAGAG [salish99-ss2-137]
apparent KD of MS2 coat protein [1]: 8.51 nM | apparent KD of MS2 coat protein [2]: 12.6 nM

AAGCAACAUGAGGAUCACCCAUGUAGCAGGGUCAGAGGAUAUUUGAUCUUGGCAAGGGUUAAAGAAGGUUGAUAAA [Rianqu]
apparent KD of MS2 coat protein [1]: 264 nM | apparent KD of MS2 coat protein [2]: 140 nM

GAUCCAACUAGUCAGGAUAUCAGGCGUAAGACAUGAGGAUCACCCAUGUCCUAAGAACAAGUAACUGAGAAGGGACAGGGCGACC [JR_SS002_Sub412]
apparent KD of MS2 coat protein [1]: 70.5 nM | apparent KD of MS2 coat protein [2]: 74.3 nM

GGAAGACAUGAGGAUCACCCAUGUGGGAUUAUGGGAGGAUAUACAAAGACGAGAGUCAGAGUAGAAGGCCUAGGAC [salish99-ss1-123(!)]
apparent KD of MS2 coat protein [1]: 31.1 nM | apparent KD of MS2 coat protein [2]: 61.4 nM

AAUAUAUUAUCUGAGGAUAUCAUAGGAAAAACAUGAGGAUCACCCAUGUGGGAAACCUGGUCGGGUGAGAAGGUGGAUAAUAUAU [Samwise Clockwise 33 - Jieux - Same State 2]
apparent KD of MS2 coat protein [1]: 58.7 nM | apparent KD of MS2 coat protein [2]: 341 nM

GAGGACCUAGGAUAGGAUAUGUGAAUAAUUACAUGAGGAUCACCCAUGUCCAUUUAUAUGGGAACAUAGAAGGGUUUUGGUUAUC [SameState2 Malc#39]
apparent KD of MS2 coat protein [1]: 232 nM | apparent KD of MS2 coat protein [2]: 180 nM

AAAAAACAUGAGGAUCACCCAUGUCAAAAGACGUGAGGAUAUGUACAGACUUCGGUCUGUACAGAAGGCAUGAAAA [SS1 - 1056]
apparent KD of MS2 coat protein [1]: 32 nM | apparent KD of MS2 coat protein [2]: 136 nM

AAAAGACAUGAGGAUCACCCAUGUGAAAACGUAGGAGGAUAUGUCGUGAAAAAAGACUUGACAGAAGGCCUGUGUC [SS1 - 34]
apparent KD of MS2 coat protein [1]: 28.1 nM | apparent KD of MS2 coat protein [2]: 63.5 nM

AAUAAACAUGAGGAUCACCCAUGUAGAAACAUGGGAGGAUAUACAAAGACGAAAGUCAAAGUAGAAGGCCUAAAAA [Mat - Same State 1 - Mod - D168]
apparent KD of MS2 coat protein [1]: 150 nM | apparent KD of MS2 coat protein [2]: 329 nM

AAAUAAAAGACUAAGGAUAUGUCGCAUGACACAUGAGGAUCACCCAUGUGGUAACACAGAGGGUGGCAGAAGGUAGUCAAAAAAC [Mod 1 of Pariah 6 (Round1) by Hyphema]
apparent KD of MS2 coat protein [1]: 45.8 nM | apparent KD of MS2 coat protein [2]: 446 nM

CGGAGACAUGAGGAUCACCCAUGUGAGAAGAGGCGAGGAUAUCGAAAGAAAGAAGAGAAACGAGAAGGCGCGAGGG [salish99-SS1-075]
apparent KD of MS2 coat protein [1]: 18.3 nM | apparent KD of MS2 coat protein [2]: 27.7 nM

CGCGGGCCCGGGCAGGAUAUCCGGCCUCGGACAUGAGGAUCACCCAUGUGGCCGAAAGGCCGGUGGGAGAAGGGCCCGGGCCCGC
apparent KD of MS2 coat protein [1]: 20.5 nM | apparent KD of MS2 coat protein [2]: 23.1 nM

GAAAAACAUGAGGAUCACCCAUGUGUAAACACGGGAGGAUAUACGAAGACGUAAGUCAAAGUAGAAGGCCUAAAAG [Garnet 40]
apparent KD of MS2 coat protein [1]: 18.9 nM | apparent KD of MS2 coat protein [2]: 60.3 nM

AUUCCAAAUAGUCAGGAUAUCAGGAGUAAGACAUGAGGAUCACCCAUGUACUUAGUAAAAGUAACUGAGAAGGGACAGGGUGUAA [JR_SS002_Sub406]
apparent KD of MS2 coat protein [1]: 30 nM | apparent KD of MS2 coat protein [2]: 24.2 nM

AAUAAACAUGAGGAUCACCCAUGUAAAUGGGUACAAGGAUAUGCGAAAAGAAACAAAGAAGCAGAAGGUGUAAAGA [Ex5 sub 2]
apparent KD of MS2 coat protein [1]: 347 nM | apparent KD of MS2 coat protein [2]: 432 nM

AAAGACACGGUGCAGGAUAUAUUAAUAGUCACAUGAGGAUCACCCAUGUUCAUUUAUAUGAACGAGUAGAAGGGCGGUGAAAAAA [SameState2 Malc#8]
apparent KD of MS2 coat protein [1]: 174 nM | apparent KD of MS2 coat protein [2]: 110 nM

AAGAAACAUGAGGAUCACCCAUGUGAUAAUAUGGGAGGAUAUACGAAGACGAAAGACGAAGUAGAAGGCCUAAGAA [Garnet 46]
apparent KD of MS2 coat protein [1]: 45.3 nM | apparent KD of MS2 coat protein [2]: 138 nM
